From US20100266532A1, “METHODS FOR INHIBITING SCARRING” (Renovo Limited, priority 2007, published 2010)

Tests used:
[1] = test system: 1 cm incisional rat wounds; assay: Reduction in scarring of rat wounds treated with IL-10 in two incidences of treatment; type: in vivo; details: for percentage reduction in scarring compared to placebo control: approximately 24 hours apart
Description: FIG. 13 is a graph showing the percentage reduction in scarring, as compared to placebo control, achieved in scars formed on healing of 1 cm incisional rat wounds treated with IL-10 administered by means of intradermal injection in two incidences of treatment, the first prior to wounding and the second approximately 24 hours later. Wounds dosed with IL-10 received either two injections of 500 ng/100 μl IL-10, two injections of 1000 ng/100 μl IL-10, or an escalating dose regime in accordance with the present invention, in which the first injection comprised 500 ng/100 μl IL-10 and the second injection comprised 1000 ng/100 μl IL-10.
Arrow heads mark the ends of the scars 70 days post wounding.

[2] = test system: inflammatory cells in 1 cm incisional rat wounds; assay: Percentage of inflammatory cells (CD68 staining) in rat wounds; type: in vivo; details: 3 days post treatment
Source text: Wounds were excised from the experimental rats at 3 days post treatment, fixed in 10% (v/v) buffered formal saline, processed for histology and stained with CD68 to assess inflammatory cell numbers.

B1: IL-10: interleukin-10, anti-scarring agent; amino acid sequence of human IL-10 in Sequence ID No. 3 (protein, listed as Homo sapiens)
chain: MSPGQGTQSENSCTHFPGNLPNMLRDLRDAFSRVKTFFQMKDQLDNLLLKESLLEDFKGYLGCQALSEMIQFYLEEVMPQAENQDPDIKAHVNSLGENLKTLRLRLRRCHRFLPCENKSKAVEQVKNAFNKLQEKGIYKAMSEFDIFINYIEAYMTMKIRN
[1]; escalating 500 then 1000 ng/100 μl versus 500 ng/100 μl twice, 70 days post wounding
  inhibition of scarring, macroscopic images: greater inhibition of scarring
[1]; escalating: 500 ng/100 μl then 1000 ng/100 μl approximately 24 hours later
  reduction in scarring versus constant doses: much larger magnitude of effect
[1]; two injections of 500 ng/100 μl
  percentage reduction in scarring compared to placebo control: 27.5%
[1]; two injections of 1000 ng/100 μl
  percentage reduction in scarring compared to placebo control: 22.8%
[2]
  infiltration of inflammatory cells into the wound compared to controls: reduces infiltration of inflammatory cells
[2]; escalating: 500 ng/100 μl then 1000 ng/100 μl
  inflammatory cell numbers versus same dose given twice: surprisingly marked decrease in inflammatory cell numbers
